Data on three proteins can be found in patent US20040018561A1, “Peptide compounds and their use as protease substrates” (priority 2002, published 2004).

Type in all cases: biochemical
Substrate in series [1]: COc1ccc2c(CC(=O)N[C@@H](CCCNC(=N)N)C(=O)N3CCC[C@@H]3C(=O)N[C@@H](CC(C)C)C(=O)NCC(=O)N[C@@H](CC(C)C)C(=O)N[C@H](CNc3ccc([N+](=O)[O-])cc3[N+](=O)[O-])C(=O)N[C@@H](C)C(=O)N[C@H](CCCNC(=N)N)C(=O)N[C@@H](CCC(=O)O)C(=O)N[C@H](CCCNC(=N)N)C(N)=O)cc(=O)oc2c1
Put plainly: Km and kcat/Km of substrates with MMP-1. To be noted: other: substrate cleavage by MMP-1.

Substrate in series [2]: COc1ccc2c(CC(=O)N[C@H](CCCNC(=N)N)C(=O)N3CCC[C@H]3C(=O)N[C@@H](CC(C)C)C(=O)NCC(=O)N[C@@H](CCCCOCc3ccccc3)C(=O)N[C@@H](CNc3ccc([N+](=O)[O-])cc3[N+](=O)[O-])C(=O)N[C@@H](C)C(=O)N[C@H](CCCNC(=N)N)C(=O)N[C@H](CCC(=O)O)C(=O)N[C@H](CCCNC(=N)N)C(N)=O)cc(=O)oc2c1
The experiment in a line: Km and kcat/Km of substrates with MMP-1. To be noted: other: substrate cleavage by MMP-1.

Substrate in series [3]: COc1ccc2c(CC(=O)N[C@@H](CCCNC(=N)N)C(=O)N3CCC[C@@H]3C(=O)N[C@@H](CC(C)C)C(=O)NCC(=O)N[C@@H](CC(C)C)C(=O)N[C@H](CNc3ccc([N+](=O)[O-])cc3[N+](=O)[O-])C(=O)N[C@@H](C)C(=O)N[C@H](CCCNC(=N)N)C(=O)N[C@@H](CCC(=O)O)C(=O)N[C@H](CCCNC(=N)N)C(N)=O)cc(=O)oc2c1
The experiment in a line: Km and kcat/Km of substrates with MMP-7. To be noted: other: substrate cleavage by MMP-7.

Substrate in series [4]: COc1ccc2c(CC(=O)N[C@H](CCCNC(=N)N)C(=O)N3CCC[C@H]3C(=O)N[C@@H](CC(C)C)C(=O)NCC(=O)N[C@@H](CCCCOCc3ccccc3)C(=O)N[C@@H](CNc3ccc([N+](=O)[O-])cc3[N+](=O)[O-])C(=O)N[C@@H](C)C(=O)N[C@H](CCCNC(=N)N)C(=O)N[C@H](CCC(=O)O)C(=O)N[C@H](CCCNC(=N)N)C(N)=O)cc(=O)oc2c1
Put plainly: Km and kcat/Km of substrates with MMP-7. The note with it: other: substrate cleavage by MMP-7.

Substrate in series [5]: COc1ccc2c(CC(=O)N[C@@H](CCCNC(=N)N)C(=O)N3CCC[C@@H]3C(=O)N[C@@H](CC(C)C)C(=O)NCC(=O)N[C@@H](CC(C)C)C(=O)N[C@H](CNc3ccc([N+](=O)[O-])cc3[N+](=O)[O-])C(=O)N[C@@H](C)C(=O)N[C@H](CCCNC(=N)N)C(=O)N[C@@H](CCC(=O)O)C(=O)N[C@H](CCCNC(=N)N)C(N)=O)cc(=O)oc2c1
The experiment in a line: Km and kcat/Km of substrates with MMP-2. The note with it: other: substrate cleavage by MMP-2.

Substrate in series [6]: COc1ccc2c(CC(=O)N[C@@H](CCCNC(=N)N)C(=O)N3CCC[C@H]3C(=O)N[C@@H](CC(C)C)C(=O)NCC(=O)N[C@@H](CCCCOCc3ccccc3)C(=O)N[C@@H](CNc3ccc([N+](=O)[O-])cc3[N+](=O)[O-])C(=O)N[C@@H](C)C(=O)N[C@@H](CCCNC(=N)N)C(=O)N[C@@H](CCC(=O)O)C(=O)N[C@@H](CCCNC(=N)N)C(N)=O)cc(=O)oc2c1
Put plainly: Km and kcat/Km of substrates with MMP-2. The note with it: other: substrate cleavage by MMP-2.

Substrate in series [7]: COc1ccc2c(CC(=O)N[C@H](CCCNC(=N)N)C(=O)N3CCC[C@H]3C(=O)N[C@@H](CC(C)C)C(=O)NCC(=O)N[C@@H](CCCCOCc3ccccc3)C(=O)N[C@@H](CNc3ccc([N+](=O)[O-])cc3[N+](=O)[O-])C(=O)N[C@@H](C)C(=O)N[C@H](CCCNC(=N)N)C(=O)N[C@H](CCC(=O)O)C(=O)N[C@H](CCCNC(=N)N)C(N)=O)cc(=O)oc2c1
The experiment in a line: Km and kcat/Km of substrates with MMP-2. To be noted: other: substrate cleavage by MMP-2.

Substrate in series [8]: COc1ccc2c(CC(=O)N[C@H](CCCNC(=N)N)C(=O)N3CCC[C@H]3C(=O)N[C@@H](CC(C)C)C(=O)NCC(=O)N[C@@H](CCCCOc3ccccc3)C(=O)N[C@@H](CNc3ccc([N+](=O)[O-])cc3[N+](=O)[O-])C(=O)N[C@@H](C)C(=O)N[C@H](CCCNC(=N)N)C(=O)N[C@H](CCC(=O)O)C(=O)N[C@H](CCCNC(=N)N)C(N)=O)cc(=O)oc2c1
Put plainly: Km and kcat/Km of substrates with MMP-2. To be noted: other: substrate cleavage by MMP-2.

B1: MMP-1 (Homo sapiens) (protein)
chain: FVLTEGNPRWEQTHLTYRIENYTPDLPRADVDHAIEKAFQLWSNVTPLTFTKVSEGQADIMISFVRGDHRDNSPFDGPGGNLAHAFQPGPGIGGDAHFDEDERWTNNFREYNLHRVAAHELGHSLGLSHSTDIGALMYPSYTFSGDVQLAQDDIDGIQAIYGRSQNPVQPIGPQTPKACDSKLTFDAITTIRGEVMFFKDRFYMRTNPFYPEVELNFISVFWPQLPNGLEAAYEFADRDEVRFFKGNKYWAVQGQNVLHGYPKDIYSSFGFPRTVKHIDAALSEENTGKTYFFVANKYWRYDEYKRSMDPGYPKMIAHDFPGIGHKVDAVFMKDGFFYFFHGTRQYKFDPKTKRILTLQKANSWFNCRKN
In general, Km refers to the substrate concentration at which the rate is half of its maximum. B1: the Km in series [1] is 49 µM; in series [2], 35.1 µM. For the same protein, the kcat/Km stood at 5.7 M^−1s^−1×10^4 in series [1] and 0.36 M^−1s^−1×10^4 in series [2].

B2: MMP-7 (Homo sapiens) (protein)
chain: YSLFPNSPKWTSKVVTYRIVSYTRDLPHITVDRLVSKALNMWGKEIPLHFRKVVWGTADIMIGFARGAHGDSYPFDGPGNTLAHAFAPGTGLGGDAHFDEDERWTDGSSLGINFLYAATHELGHSLGMGHSSDPNAVMYPTYGNGDPQNFKLSQDDIKGIQKLYGKRSNSRKK
On to B2, for which, in series [3], the Km came out at 81.2 µM and the kcat/Km worked out at 2.2 M^−1s^−1×10^4. Further, in series [4], the Michaelis constant (Km) was found to be 94.7 µM and the kcat/Km came to 0.298 M^−1s^−1×10^4.

B3: MMP-2 (Homo sapiens) (protein)
chain: YNFFPRKPKWDKNQITYRIIGYTPDLDPETVDDAFARAFQVWSDVTPLRFSRIHDGEADIMINFGRWEHGDGYPFDGKDGLLAHAFAPGTGVGGDSHFDDDELWTLGEGQVVRVKYGNADGEYCKFPFLFNGKEYNSCTDTGRSDGFLWCSTTYNFEKDGKYGFCPHEALFTMGGNAEGQPCKFPFRFQGTSYDSCTTEGRTDGYRWCGTTEDYDRDKKYGFCPETAMSTVGGNSEGAPCVFPFTFLGNKYESCTSAGRSDGKMWCATTANYDDDRKWGFCPDQGYSLFLVAAHEFGHAMGLEHSQDPGALMAPIYTYTKNFRLSQDDIKGIQELYGASPDIDLGTGPTPTLGPVTPEICKQDIVFDGIAQIRGEIFFFKDRFIWRTVTPRDKPMGPLLVATFWPELPEKIDAVYEAPQEEKAVFFAGNEYWIYSASTLERGYPKPLTSLGLPPDVQRVDAAFNWSKNKKTYIFAGDKFWRYNEVKKKMDPGFPKLIADAWNAIPDNLDAVVDLQGGGHSYFFKGAYYLKLENQSLKSVKFGSIKSDWLGC
With B3, the Km in series [5] came to 9.9 µM; in series [6] it was 8.3 µM; in series [7], 3.7 µM; in series [8] it was 3.6 µM. Also, the kcat/Km stood at 17.8 M^−1s^−1×10^4 in series [5], 134 M^−1s^−1×10^4 in series [6], 60 M^−1s^−1×10^4 in series [7] and 196 M^−1s^−1×10^4 in series [8].
